Measurements: patent US10077303B2, “Anti-neurotensin antibodies and uses thereof” (INSERM (INSTITUT NATIONAL DE LA SANTÉ ET DE LA RECHERCHE …, priority 2014, dated 2018)

B1: NTSp27-7.4: NTS neutralizing monoclonal antibody from hybridoma clone 7.4; VH SEQ ID NO:1, VL SEQ ID NO:5 (antibody, V domains shown)
VH: DVKLVESGGGLVKLGGSLKLSCAASGFTFSGYYMSWVRQTPEKRLELVAAINNYGDNTNYPDTVKGRFSVSRDNAKNTLYLEMNSLKSEDTALYYCARLANYANQRGAMDYWGQGTSVTVSS
VL: DIQMTHTTSSLSASLGDRVTISCRASQDIANYLNWYQQKPDGTVTLLIYYTSRLHSGVPSRFSGSGSGTDYSLTINNLDQEDIATYFCQQGYTLPPTFGGGTKLEIK
modifications: Synthetic VH sequence; Synthetic VL sequence

Legend:
LNM-R cells [1] = assay: cisplatin test, LNM-R tumor xenograft; format: in vivo, NMRI nu/nu mice; details: for day the experiment was stopped because of the large size of the tumors: control group stopped after 21
Procedure: (§1) FIG. 6. […] A) LNM-R or R-SI NTSR1 cells (LNM-R expressing sh-RNA for NTSR1) were injected into the left and the right flanks of the mice, respectively; Mice were treated with PBS, or 15 mg/kg NTSp27-7.4 every other day and/or with cisplatin 1 mg/kg day 1, 3, 5, 7, 15, 17, and 19. At day one, 9 and 8 mice were randomized for the size of the LNM-R tumors; reaching approximately 95 mm3 on average. Mice were treated every other day and measured every day. B) Tumor growth rate from day one generated by R-SI NTSR1 cells (right flank).
(§2) Cisplatin test, 1×10^6 LNM-R cells and 1×10^6R-SI NTSR1 were subcutaneously inoculated in NMRI nu/nu mice, LNM-R in the left flank and R-SI NTSR1 in the right flank. When tumors generated by LNM-R reached an average volume of 95 mm^3, mice were randomized in 5 groups of 8 to 10 mice. Group 1 was administered with PBS, group 2 with antibody NTSp27-7.4 (i.p. every other day, 15 mg/kg) for total of 13 times and group 3 with mouse IgG (i.p. every other day, 15 mg/kg). Group 4 was administered with PBS and cisplatin (1 mg/kg at day 1,3 5 7, 15, 17, and 19) and groups 5 with antibody NTSp27-7.4 (i.p. every other day, 15 mg/kg) and cisplatin (1 mg/kg at day 1,3 5 7, 15, 17, and 19). The volume of tumor was measured every other day.

A2780 cells = assay: A2780 ovarian cancer tumor xenograft, cisplatin response; format: in vivo, NMRI-Nude Foxn1 mice
Procedure: FIG. 8. […] 3 million A2780 cells were injected into mice. When tumors generated by A2780 reached an average volume of 200 mm^3, mice were randomized into 4 groups. Mice were treated with PBS, or 15 mg/kg NTSp27-7.4 every other day and/or with cisplatin 1 mg/kg day at 1, 3, 5, and 7 days. Results are the mean of 8 to 12 mice performed in two different independent experiments.
A2780 cells (3×10^6) cells were combined with […] and 50 μl […]® (a gelatinous protein mixture), then injected subcutaneously into the right hind leg of 4 week old female NMRI-Nude Foxn1 mice. Treatment started when tumors reached approximately 200 mm3. Tumor volume was calculated every two days by using the following equation: tumor volume (mm3)=4/3×π×(length/2)×(width/2)×(height/2). After treatment, the mice were sacrificed and tumors were fixed in formalin.

R-SI NTSR1 cells [2] = assay: cisplatin test, R-SI NTSR1 tumor xenograft; format: in vivo, NMRI nu/nu mice
Procedure: as §1, §2

MDA-MB 231 cells = assay: MDA-MB 231 breast cancer tumor xenograft; format: in vivo, NMRI nu/nu mice; details: 15 mg/kg i.p. every other day
Procedure: (§3) FIG. 5. NTSp27-7.4 inhibits experimental tumor growth generated by breast cancer cell lines. Tumor growth generated by MDA-MB 231 cells (left flank) (A), and MDA Si2 cells (right flank) (B), and treated for 24 days with PBS, or 15 mg/kg […]. At day one, 7, and 6 mice were randomized for the size of MDA-MB231 tumors size; reaching approximately 50 mm3. Mice were treated and measured every other day.
(§4) 3×10^6 MDA-MB 231 cells and 3×10^6 MDA si2 were subcutaneously inoculated in 100 μl of […]® (a gelatinous protein mixture) the left flank and the right flank of the NMRI nu/nu mice, respectively. When tumors generated by MDA reached an average volume of 50 mm^3, mice were randomized in 2 groups, then administered antibody NTSpP27-7.4 (i.p. every other day, 15 mg/kg) for total 12 times. PBS was used as the vehicle control.

R-SI NTSR1 cells [3] = assay: R-SI NTSR1 tumor xenograft (same mice, right flank); format: in vivo, NMRI nu/nu mice; details: non-expressing NTSR1 tumors, 15 mg/kg
Procedure: (§5) FIG. 4. NTSp27-7.4 inhibits experimental tumor growth generated by lung cancer cell lines. A) LNM-R or R-SI NTSR1 cells (LNM-R expressing sh-RNA for NTSR1) were injected into the left and the right flank of the mice, respectively. Here is shown an example of a mouse from each group after 15 days of treatment. B) Tumor growth generated by LNM-R cells (left flank) xenografted into nude mice and treated for 15 days with PBS, or 15 mg/kg NTSp27-7.4. At day one, 10, and 8 mice were randomized on LNM-R tumors size reaching approximately 40 mm3 for control and NTSp27-7.4 group, respectively. Mice were treated every other day and measured every day. C) Tumor growth generated by R-SI NTSR1 cells (right flank) xenografted into the same mice. D and E) Tumor growth rate from day one generated by LNM-R cells (left flank) and R-SI NTSR1 cells (right flank).
(§6) 1×10^6 LNM-R cells and 1×10^6R-SI NTSR1 were subcutaneously inoculated in NMRI nu/nu mice, LNM-R in the left flank and R-SI NTSR1 in the right flank. When tumors generated by LNM-R reached an average volume of 40 mm^3, mice were randomized in 2 groups, then administered antibody NTSpP27-7.4 (i.p. every other day, 15 mg/kg) for total 8 times. PBS was used as the vehicle control. The volume of tumor was measured daily.

LNM-R cells [4] = assay: LNM-R lung cancer tumor xenograft; format: in vivo, NMRI nu/nu mice; details: 15 mg/kg i.p. every other day
Procedure: as §5, §6

[5] = test system: MCF-7 cell overexpressing NTS; assay: invasion test on type I collagen of MCF-7 cells overexpressing NTS (NTS-h); format: cell-based; details: NTS-overexpressing clones vs MCF-7; EGF 100 ng/mL; 7 μg antibody
Procedure: The experiment was repeated twice.
(§7) The cell culture insert (8 μm, Beckton Dickinson®) was coated with type I collagen (100 μl/well, 4×10^2 μg/ml, Sigma®) at 37° C. 24 h before the assay. 1 million MCF, NTS-h, Hep 3B, HepR1a, and HepR2b cells were seeded in the insert with 250 μl of serum free medium in presence or absence of 7 μg antibodies NTSp27-7.4. Outside the insert, 750 μl medium with 10% FCS was added in the well as chemoattractant. After 48 h of incubation, the non-invading cells and collagen are removed from the upper surface of the membrane by scrubbing with a cotton swab. Invading cells (those adhering to the bottom surface of the membrane) were fixed and stained with the Kwif diff stain kit(Thermo®) and the number of stained cells were counted with an inverted microscope at 200× magnification.

MDA si2 cells = assay: MDA Si2 tumor xenograft (same mice, right flank); format: in vivo, NMRI nu/nu mice; details: MDA Si2 tumors (NTSR1-)
Procedure: as §3, §4

[6] = test system: Hep 3B, HepR1a, and HepR2b cells; assay: collagen type 1 invasion assay of hepatocellular carcinoma cells; format: cell-based; details: Hep-R1a and Hep-R1b; 3.75 μg/ml purified antibody
Procedure: FIG. 3. […] A) Migration in a collagen 1 invasion assay of Hep 3B, HepR1a, and HepR2b cells. Results represent the mean±SEM of 3 experiments. Results are expressed as a % on invasive cells of control cells, Hep3B. […] B) Migration in a collagen type 1 invasion assay of Hep 3B, HepR1a, and HepR2b cells in a presence of 3.75 μg/ml of purified NTSp27-7.4 or mouse IgG. Results represent the mean±SEM of 3 experiments. Results are expressed as a % on invasive cells of respective control cells.
as §7

Molecule | LNM-R tumor growth rate as compared to PBS treated mice (LNM-R cells [1]; cisplatin 1 mg/kg day 1,3,5,7,15,17,19, IgG 15 mg/kg every other day) | day the experiment was stopped because of the large size of the tumors (LNM-R cells [1]) [days] | A2780 tumor growth rates as compared to PBS treated mice (A2780 cells; cisplatin 1 mg/kg at 1, 3, 5, and 7 days) | R-SI NTSR1 tumor size (R-SI NTSR1 cells [2]; cisplatin 1 mg/kg, growth ratio to D1) | MDA-MB231 tumor growth as compared to PBS treated animals (MDA-MB 231 cells; 24 days) | tumor growth rate from D1 (MDA-MB 231 cells; PBS 4.4±0.33) [fold] | tumor doubling time after 24 days of treatment (MDA-MB 231 cells; control 11.63±1) [days] | LNM-R tumor size (LNM-R cells [1]; antibody 15 mg/kg every other day, with or without cisplatin 1 mg/kg) | size of the tumor and growth rate vs PBS (R-SI NTSR1 cells [3]) | A2780 tumor size (A2780 cells; antibody 15 mg/kg every other day, with or without cisplatin 1 mg/kg, PBS 2062±371.5, p=0.054 vs PBS, p=0.0058 vs cisplatin) [mm^3] | tumor size smaller as compared to controls (LNM-R cells [4]; 15 days, vs PBS) [times] | tumor growth from D1 (LNM-R cells [4]; PBS 24.68±4.05) [fold] | tumor doubling time after 16 days of treatment (LNM-R cells [4]; control 3.43±0.34) [days] | induction of invasiveness induced or not by EGF [5] | tumor sizes, growth rate and doubling time vs PBS (MDA si2 cells) | invasive rate of the cells expressing NTS and NTSR1 [6] | R-SI NTSR1 tumor growth rate (R-SI NTSR1 cells [2]; combined treatment of NTSp27-7.4 with cisplatin)
N.N.[Cl][Pt][Cl] [cisplatin, reference compound] | not altered | 23 | slightly but not significantly altered | decreased |  |  |  |  |  |  |  |  |  |  |  |  | 
B1 |  | 25 |  |  | strong reduction | 1.5±0.1 | 52.8 ± 17.6 | smaller | not different | 1280±262.0 | 2.6 | 8.22±1.84 | 5.11 ± 0.38 | inhibited | no difference | reduced | do not change
